In this assay the test system is mammary epithelial cells. Briefly: 3D organotypic mammary organoid formation. It counts as cell-based, mouse. The settings on record: for organoid formation (frequency, number of colonies): Wnt-dependent organoid culture. Here is the method:
FIGS. 8A-8D. Autocrine and paracrine effects of NODAL and LEFTY1 in mammary epithelial cell populations. […] The sorted cells were grown in the 3D organotypic assays to test their organoid formation potential in the presence of NODAL. […] Each dot represents an organoid (n=3). […] Data are represented as median±S.D. Statistical analysis, One-way ANOVA with Dunnet's adjustment, **p<0.01.
FIGS. 9A-9F. Opposing effects of LEFTY1 and BMP7 in mammary organoid formation. […] Data are represented as median±S.D. Statistical analysis, one-way ANOVA with Dunnet's adjustment, *p<0.05; **p<0.01; ***p<0.001.
Since LEFTY1 and BMP7 were able to affect the branching of mammary glands, we hypothesized that the LEFTY1/BMP7 signaling axis may affect the proliferation of mammary epithelial cells. We exposed freshly dissociated mammary epithelial cells to NODAL, LEFTY1, BMP7 and CRIPTO-1 in a modified Wnt-dependent in vitro organoid culture system that was optimized for progenitor cell propagation (Zeng & Nusse, Cell Stem Cell 6, 568-577 (2010) and Jamieson et al., Development 144, 1065-1071 (2017)). In Xenopus, Wnt signaling controls the expression of Nodal and Cripto-1 during gastrulation. Consistent with the evolutionary conservation of the interaction between the Nodal and Wnt pathways (Branford et al., Curr Biol 12, 2136-2141 (2002)), NODAL had no effect on organoid formation in our Wnt-driven culture system (FIG. 8A).
In organoid cultures, the basal cells give rise to mixed phenotype colonies of luminal and basal cells. To prevent the formation of LEFTY1-expressing cells during organoid formation, genetic knockdown of LEFTY1 was done. To knock-down mouse LEFTY1, pSICO-R lentiviral vector was used (Ventura, PNAS, 2004). Different shRNAs were designed and cloned into pSICO-R. The target sequences of the shRNAs cloned were GGACAAGGCTGATGTGGAA (SEQ ID NO: 14) and GCAGGTTCCTGGTGTCAGA (SEQ ID NO: 15). The efficiency of knock-down was tested by transfecting HEK293T cells with pSICO-R-shLEFTY1 constructs with pEGFP-C3-LEFTY1 at 1:4 and 1:20 ratio. Decrease on GFP signal was used to calculate the percentage of inhibition of the shLEFTY sequences. […] (p<0.001 and p<0.01, respectively) (FIGS. 8C-8D and FIGS. 9E-9F).

B1: NODAL: TGF-β family ligand that induces phosphorylation of SMAD2/3 (protein, UniProt Q96S42 238-347, looked up)
Nodal homolog: HHLPDRSQLCRKVKFQVDFNLIGWGSWIIYPKQYNAYRCEGECPNPVGEEFHPTNHAYIQSLLKRYQPHRVPSTCCAPVKTKPLSMLYVDNGRVLLDHHKDMIVEECGCL
For B1, the “organoid formation (frequency, number of colonies)” value is listed as “no effect”.

B2: CRIPTO-1: soluble EGF-CFC Nodal co-receptor (protein, UniProt P13385 31-150, looked up)
Protein Cripto: LGHQEFARPSRGYLAFRDDSIWPQEEPAIRPRSSQRVPPMGIQHSKELNRTCCLNGGTCMLGSFCACPPSFYGRNCEHDVRKENCGSVPHDTWLPKKCSLCKCWHGQLRCFPQAFLPGCD
With B2, the “organoid formation (frequency, number of colonies)” value was “did not have a significant effect”. The “effect on LEFTY1's increase of organoid formation” value (in combination with LEFTY1) is “enhanced”.

The values are drawn from patent US12012599B2, “Compositions and methods for modulating left-right differentiation factor (LEFTY) and bone morphogenic factor (BMP)” (CZ Biohub SF LLC, priority 2018, dated 2024).
